According to article PMC10397247:

How the values were obtained:
4H1650-AA = target: T1, 4H1650-AA; test: two-hybrid library CCmax;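 also: natural log of median RNA to DNA barcode read ratio; higher means stronger binding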
T1 chain: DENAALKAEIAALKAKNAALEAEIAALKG

4H3073-AA = target: T2, 4H3073-AA; test: two-hybrid library CCmax; details: mean of both orientations;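 also: natural log of median RNA to DNA barcode read ratio; higher means stronger binding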
T2 chain: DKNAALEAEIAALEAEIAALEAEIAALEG

4H1828-AA = target: T3, 4H1828-AA; test: two-hybrid library CCmax; details: mean of both orientations;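 also: natural log of median RNA to DNA barcode read ratio; higher means stronger binding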
T3 chain: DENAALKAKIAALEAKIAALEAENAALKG

4H2592-AA = target: T4, 4H2592-AA; test: two-hybrid library CCmax; details: mean of both orientations;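 also: natural log of median RNA to DNA barcode read ratio; higher means stronger binding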
T4 chain: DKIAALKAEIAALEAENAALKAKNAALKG

4H2330-AA = target: T5, 4H2330-AA; test: two-hybrid library CCmax; details: mean of both orientations;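 also: natural log of median RNA to DNA barcode read ratio; higher means stronger binding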
T5 chain: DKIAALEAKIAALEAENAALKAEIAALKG

4H2774-AA = target: T6, 4H2774-AA; test: two-hybrid library CCmax; details: mean of both orientations;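 also: natural log of median RNA to DNA barcode read ratio; higher means stronger binding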
T6 chain: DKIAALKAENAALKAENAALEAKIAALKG

4H2931-AA = target: T7, 4H2931-AA; test: two-hybrid library CCmax; details: mean of both orientations
T7 chain: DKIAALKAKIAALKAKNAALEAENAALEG

4H1821-AA = target: T8, 4H1821-AA; test: two-hybrid library CCmax
T8 chain: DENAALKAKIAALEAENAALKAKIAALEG

4H2466-AA = target: T9, 4H2466-AA; test: two-hybrid library CCmax; details: mean of both orientations
T9 chain: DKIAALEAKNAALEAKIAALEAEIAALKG

4H3438-AA = target: T10, 4H3438-AA; test: two-hybrid library CCmax
T10 chain: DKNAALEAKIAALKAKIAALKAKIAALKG

4H1930-AA = target: T11, 4H1930-AA; test: two-hybrid library CCmax; details: mean of both orientations
T11 chain: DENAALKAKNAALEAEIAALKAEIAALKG

4H_BCR = target: T12, 4H_BCR; test: two-hybrid library CCmax; details: mean of both orientations
T12 chain: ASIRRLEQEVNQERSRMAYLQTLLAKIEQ

4H_GCN4 = test: two-hybrid library CCmax
Sequence of 4H_GCN4 (chain, as listed by the source): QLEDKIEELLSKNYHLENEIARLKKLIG

4H56-AA = target: T13, 4H56-AA; test: two-hybrid library CCmax; details: mean of both orientations
T13 chain: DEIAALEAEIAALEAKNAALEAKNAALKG

4H347-AA = target: T14, 4H347-AA; test: two-hybrid library CCmax; details: mean of both orientations
T14 chain: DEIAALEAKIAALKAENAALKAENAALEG

4H249-AA = target: T15, 4H249-AA; test: two-hybrid library CCmax; details: mean of both orientations
T15 chain: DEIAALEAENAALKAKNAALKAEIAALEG

4H175-AA = target: T16, 4H175-AA; test: two-hybrid library CCmax; details: mean of both orientations
T16 chain: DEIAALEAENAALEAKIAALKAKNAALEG

4H1765-AA = target: T17, 4H1765-AA; test: two-hybrid library CCmax; details: mean of both orientations
T17 chain: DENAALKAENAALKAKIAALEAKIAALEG

4H2165-AA = target: T18, 4H2165-AA; test: two-hybrid library CCmax; details: mean of both orientations
T18 chain: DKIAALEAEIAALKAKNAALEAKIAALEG

4H_APH = target: T19, 4H_APH; test: two-hybrid library CCmax; details: mean of both orientations
T19 chain: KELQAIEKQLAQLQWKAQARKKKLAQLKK

4H406-AA = target: T20, 4H406-AA; test: two-hybrid library CCmax; details: mean of both orientations
T20 chain: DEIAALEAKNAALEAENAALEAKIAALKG

4H2343-AA = target: T21, 4H2343-AA; test: two-hybrid library CCmax; details: mean of both orientations
T21 chain: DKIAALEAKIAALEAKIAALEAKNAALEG

GCN2_T = test: two-hybrid library CCmax
4H452-AA = target: T22, 4H452-AA; test: two-hybrid library CCmax; details: mean of both orientations
T22 chain: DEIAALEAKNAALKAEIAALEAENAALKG

4H2124-AA = target: T23, 4H2124-AA; test: two-hybrid library CCmax; details: mean of both orientations
T23 chain: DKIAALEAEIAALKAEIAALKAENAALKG

4H3001-AA = target: T24, 4H3001-AA; test: two-hybrid library CCmax; details: mean of both orientations
T24 chain: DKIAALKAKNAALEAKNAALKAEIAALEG

4H2732-AA = target: T25, 4H2732-AA; test: two-hybrid library CCmax; details: mean of both orientations
T25 chain: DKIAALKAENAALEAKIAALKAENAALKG

4H2253-AA = target: T26, 4H2253-AA; test: two-hybrid library CCmax; details: mean of both orientations
T26 chain: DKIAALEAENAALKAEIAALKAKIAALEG

4H3015-AA = target: T27, 4H3015-AA; test: two-hybrid library CCmax; details: mean of both orientations
T27 chain: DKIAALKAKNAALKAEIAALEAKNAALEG

P3A-bS = target: T28, P3A-bS; test: two-hybrid library CCNG1
T28 chain: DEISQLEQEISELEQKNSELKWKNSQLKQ

P9A-bS = target: T29, P9A-bS; test: two-hybrid library CCNG1
T29 chain: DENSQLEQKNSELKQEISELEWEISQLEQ

P8A-bS = target: T30, P8A-bS; test: two-hybrid library CCNG1
T30 chain: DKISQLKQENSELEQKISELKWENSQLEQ

P11A-bS = target: T31, P11A-bS; test: two-hybrid library CCNG1
T31 chain: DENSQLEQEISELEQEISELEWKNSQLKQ

P2A-bS = target: T32, P2A-bS; test: two-hybrid library CCNG1
T32 chain: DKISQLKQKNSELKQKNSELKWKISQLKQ

P12A-bS = target: T33, P12A-bS; test: two-hybrid library CCNG1
T33 chain: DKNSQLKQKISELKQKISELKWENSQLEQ

P4A-bS = target: T34, P4A-bS; test: two-hybrid library CCNG1
T34 chain: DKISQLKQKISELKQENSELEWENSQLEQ

P5A-bS = target: T35, P5A-bS; test: two-hybrid library CCNG1
T35 chain: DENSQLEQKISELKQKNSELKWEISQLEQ

P7A-bS = target: T36, P7A-bS; test: two-hybrid library CCNG1
T36 chain: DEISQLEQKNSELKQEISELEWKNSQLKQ

P1A-bS = target: T37, P1A-bS; test: two-hybrid library CCNG1
T37 chain: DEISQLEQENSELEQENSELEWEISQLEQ

P6A-bS = target: T38, P6A-bS; test: two-hybrid library CCNG1
T38 chain: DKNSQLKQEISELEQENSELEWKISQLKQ

4H619-bN = target: T39, 4H619-bN; test: two-hybrid library CCNG1
T39 chain: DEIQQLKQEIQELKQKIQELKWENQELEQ

4H1629-bN = target: T40, 4H1629-bN; test: two-hybrid library CCNG1
T40 chain: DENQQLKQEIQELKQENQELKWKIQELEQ

4H584-bN = target: T41, 4H584-bN; test: two-hybrid library CCNG1
T41 chain: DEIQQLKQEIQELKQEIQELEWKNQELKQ

4H1985-bN = target: T42, 4H1985-bN; test: two-hybrid library CCNG1
T42 chain: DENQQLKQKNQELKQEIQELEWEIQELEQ

4H3974-bN = target: T43, 4H3974-bN; test: two-hybrid library CCNG1
T43 chain: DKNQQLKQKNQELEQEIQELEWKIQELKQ

4H570-bN = target: T44, 4H570-bN; test: two-hybrid library CCNG1
T44 chain: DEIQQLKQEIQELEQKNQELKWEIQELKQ

4H56-bN = target: T45, 4H56-bN; test: two-hybrid library CCNG1
T45 chain: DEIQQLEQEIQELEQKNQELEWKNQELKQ

4H1710-bN = target: T46, 4H1710-bN; test: two-hybrid library CCNG1
T46 chain: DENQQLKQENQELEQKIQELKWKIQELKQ

4H3414-bN = target: T47, 4H3414-bN; test: two-hybrid library CCNG1
T47 chain: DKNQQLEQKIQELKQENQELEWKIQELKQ

4H1393-bN = target: T48, 4H1393-bN; test: two-hybrid library CCNG1
T48 chain: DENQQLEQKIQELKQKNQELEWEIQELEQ

4H850-bN = target: T49, 4H850-bN; test: two-hybrid library CCNG1
T49 chain: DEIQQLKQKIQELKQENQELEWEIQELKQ

4H1359-bN = target: T50, 4H1359-bN; test: two-hybrid library CCNG1
T50 chain: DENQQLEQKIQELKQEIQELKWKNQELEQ

4H3817-bN = target: T51, 4H3817-bN; test: two-hybrid library CCNG1
T51 chain: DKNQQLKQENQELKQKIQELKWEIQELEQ

4H906-bN = target: T52, 4H906-bN; test: two-hybrid library CCNG1
T52 chain: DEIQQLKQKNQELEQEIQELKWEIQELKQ

4H3638-bN = target: T53, 4H3638-bN; test: two-hybrid library CCNG1
T53 chain: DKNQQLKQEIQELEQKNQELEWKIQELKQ

4H3631-bN = target: T54, 4H3631-bN; test: two-hybrid library CCNG1
T54 chain: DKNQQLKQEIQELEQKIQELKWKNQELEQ

4H3172-bN = target: T55, 4H3172-bN; test: two-hybrid library CCNG1
T55 chain: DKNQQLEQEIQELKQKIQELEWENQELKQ

4H1804-bN = target: T56, 4H1804-bN; test: two-hybrid library CCNG1
T56 chain: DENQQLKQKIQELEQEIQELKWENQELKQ

4H3129-bN = target: T57, 4H3129-bN; test: two-hybrid library CCNG1
T57 chain: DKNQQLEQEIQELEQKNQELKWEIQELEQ

4H1449-bN = target: T58, 4H1449-bN; test: two-hybrid library CCNG1
T58 chain: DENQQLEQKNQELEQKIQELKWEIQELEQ

Binder: DENAALKAEIAALKAKNAALEAEIAALKG [4H1650-AA]
- interaction score (4H1650-AA): 1.93
- interaction score (4H3073-AA): -1.16
- interaction score (4H1828-AA): -1.48
- interaction score (4H2592-AA): -1.61
- interaction score (4H2330-AA): -1.54
- interaction score (4H2774-AA): -1.48
- interaction score (4H2931-AA): -1.59
- interaction score (4H1821-AA): -1.25
- interaction score (4H2466-AA): -1.67
- interaction score (4H3438-AA): -1.13
- interaction score (4H1930-AA): -1.42
- interaction score (4H_BCR): -1.36
- interaction score (4H_GCN4): -1.9
- interaction score (4H56-AA): -1.74
- interaction score (4H347-AA): -2.36
- interaction score (4H249-AA): -1.71
- interaction score (4H175-AA): -1.43
- interaction score (4H1765-AA): -1.53
- interaction score (4H2165-AA): -1.3
- interaction score (4H_APH): -1.42
- interaction score (4H406-AA): -1.61
- interaction score (4H2343-AA): -1.44
- interaction score (GCN2_T): -0.999
- interaction score (4H452-AA): -1.34
- interaction score (4H2124-AA): -1.42
- interaction score (4H3001-AA): -1.67
- interaction score (4H2732-AA): -0.897
- interaction score (4H2253-AA): -1.47
- interaction score (4H3015-AA): -1.53

Binder: DENSQLEQEISELEQEISELEWKNSQLKQ [P11A-bS]
- interaction score (P3A-bS): -0.458
- interaction score (P9A-bS): -0.134
- interaction score (P8A-bS): 0.714
- interaction score (P11A-bS): -0.865
- interaction score (P2A-bS): -0.288
- interaction score (P12A-bS): 2.41
- interaction score (P4A-bS): 0.142
- interaction score (P5A-bS): -0.458
- interaction score (P7A-bS): -1.25
- interaction score (P1A-bS): 0.728
- interaction score (P6A-bS): 0.727

Binder: DENQQLEQKIQELKQEIQELKWKNQELEQ [4H1359-bN]
- interaction score (4H619-bN): -1.38
- interaction score (4H1629-bN): -1.24
- interaction score (4H584-bN): -0.701
- interaction score (4H1985-bN): -0.294
- interaction score (4H3974-bN): 1.47
- interaction score (4H570-bN): -0.803
- interaction score (4H56-bN): -1.25
- interaction score (4H1710-bN): -0.607
- interaction score (4H3414-bN): -0.131
- interaction score (4H1393-bN): -0.209
- interaction score (4H850-bN): -0.294
- interaction score (4H1359-bN): -0.688
- interaction score (4H3817-bN): -1.14
- interaction score (4H906-bN): -1.22
- interaction score (4H3638-bN): -1.64
- interaction score (4H3631-bN): 0.911
- interaction score (4H3172-bN): 0.294
- interaction score (4H1804-bN): 0.796
- interaction score (4H3129-bN): -0.57
- interaction score (4H1449-bN): -0.317

Binder: DKNSQLKQKISELKQKISELKWENSQLEQ [P12A-bS]
- interaction score (P3A-bS): -2.43
- interaction score (P9A-bS): -0.676
- interaction score (P8A-bS): -1.07
- interaction score (P2A-bS): -1.69
- interaction score (P12A-bS): -1.48
- interaction score (P4A-bS): -1.12
- interaction score (P5A-bS): -2.21
- interaction score (P7A-bS): -0.873
- interaction score (P1A-bS): -0.648
- interaction score (P6A-bS): -0.87

Binder: DKNSQLKQENSELEQKISELKWKISQLKQ [P10A-bS]
- interaction score (P3A-bS): -0.693
- interaction score (P8A-bS): -0.395
- interaction score (P11A-bS): -0.138
- interaction score (P2A-bS): -0.0157
- interaction score (P12A-bS): -0.0445
- interaction score (P4A-bS): -0.106
- interaction score (P5A-bS): -1.76
- interaction score (P7A-bS): -0.464
- interaction score (P1A-bS): -2.5
- interaction score (P6A-bS): -1.53
